In FireProtDB (doi:10.1093/protein/gzi067):

B1: Cytochrome b5, P00171 (parent)
chain: MAEESSKAVKYYTLEEIQKHNNSKSTWLILHYKVYDLTKFLEEHPGGEEVLREQAGGDATENFEDVGHSTDARELSKTFIIGELHPDDRSKITKPSESIITTIDSNPSWWTNWLIPAISALFVALIYHLYTSEN

Variants of: B1
Details: Bos taurus, pH 7, 25 °C, CD, MOPS 30 mM, reversible: yes (partial), structure 1CYO, whole UniProt chain shown

With S76L L37I the “ddG of mutation (higher = less stable)” value (GdnHCl) was -0.5 kcal/mol, the “denaturant midpoint (higher = more stable)” value (from here on “denaturant midpoint”) (GdnHCl) was 1.9 M and the unfolding free energy (GdnHCl) was 3.5 kcal/mol. For the same variant, the “denaturant midpoint” value (GdnSCN) was 1.8 M.

For S76L, the “ddG of mutation (higher = less stable)” value (GdnHCl) was -0.8 kcal/mol, the “denaturant midpoint” value (GdnHCl) was 2.3 M and the unfolding free energy (GdnHCl) was 3.8 kcal/mol. The “denaturant midpoint” value (GdnSCN) was 1.59 M.
